From patent US20200055923A1 (HEXAL, published 2020)

Molecular target: T1, VEGF165 (human VEGF-A), immobilized (human, UniProt P15692-4 27-191)
T1 construct: Immobilized on the Biacore chip; also called vascular endothelial growth factor A
Test: SPR (Biacore), VEGF165 immobilized
Experimental: To study the binding of bevacizumab to VEGF, a surface plasmon resonance (SPR) assay using Biacore™ was carried out. The interaction between bevacizumab and its target, immobilized VEGF₁₆₅, is monitored in real time. Analysis of the association and dissociation of the binding partners allows the retrieval of the kinetic parameters kₐ (association rate constant) and kd (dissociation rate constant), which quantifies the interaction between bevacizumab or its variants and VEGF₁₆₅. Furthermore, the equilibrium dissociation constant KD is calculated using the formula KD=kd/kₐ.

T1 sequence (P15692 other isoform, or with tags, fused parts or gaps limits assumed): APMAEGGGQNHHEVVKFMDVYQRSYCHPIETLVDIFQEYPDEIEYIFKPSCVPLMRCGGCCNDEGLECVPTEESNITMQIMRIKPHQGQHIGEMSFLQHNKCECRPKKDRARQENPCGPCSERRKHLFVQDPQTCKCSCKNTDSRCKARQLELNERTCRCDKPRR

B1: bevacizumab CEX peak 1, fraction enriched in CDR-H1 glycosylated bevacizumab (antibody, human IgG1, kappa, V domains shown)
VH: EVQLVESGGGLVQPGGSLRLSCAASGYTFTNYGMNWVRQAPGKGLEWVGWINTYTGEPTYAADFKRRFTFSLDTSKSTAYLQMNSLRAEDTAVYYCAKYPHYYGSSHWYFDVWGQGTLVTVSS
VL: DIQMTQSPSSLSASVGDRVTITCSASQDISNYLNWYQQKPGKAPKVLIYFTSSLHSGVPSRFSGSGSGTDFTLTISSLQPEDFATYYCQQYSTVPWTFGQGTKVEIKR
modifications: N-linked complex-type glycan (core-fucosylated, mono- to tetra-antennary, partly sialylated) at N31 of the heavy chain, in CDR-H1
notes: Humanized IgG1; also called enriched CDR-H1 glycosylated bevacizumab obtained from CEX; Fd-glycosylated variant
  Kd: 0.235 nM
